Results on three substances are retold here after paper PMC12036459.

In test [1] the target is tubulin (taxol-stabilized microtubules). As to the kind of experiment: single-molecule TIRF on bare microtubules. Particulars: reference: E. coli tau (non-phosphorylated).
In test [2] the target is tau (human 2N4R) (UniProt P10636). Briefly: Hill coefficient of microtubule binding curve. The conditions noted are these: reference: E. coli tau (non-phosphorylated).
In test [3] the target is tau (human 2N4R) dGAE, 297-391 (UniProt P10636). Briefly: filament co-assembly, ultracentrifugation, SDS-PAGE.
Test [4] has as its target tau (human 2N4R) (UniProt P10636). As to the kind of experiment: single-molecule TIRF dwell time inside envelopes. The conditions noted are these: reference: E. coli SNAP-tau (non-phosphorylated); sites T181,S198,S202,S210,T231,S235,S237,S352,S396,S404,S422.
[5] abbreviates: sites T181,S198,S202,S210,T231,S235,S237,S352,S396,S404,S422.
Setting [6] is: sites T181,S202,S210,T231,S235,S237,S241,S258,S262,T319,T373,T377,T403,S404.

Sequence of tau (human 2N4R) (P10636 whole entry, looked up, stated change not applied): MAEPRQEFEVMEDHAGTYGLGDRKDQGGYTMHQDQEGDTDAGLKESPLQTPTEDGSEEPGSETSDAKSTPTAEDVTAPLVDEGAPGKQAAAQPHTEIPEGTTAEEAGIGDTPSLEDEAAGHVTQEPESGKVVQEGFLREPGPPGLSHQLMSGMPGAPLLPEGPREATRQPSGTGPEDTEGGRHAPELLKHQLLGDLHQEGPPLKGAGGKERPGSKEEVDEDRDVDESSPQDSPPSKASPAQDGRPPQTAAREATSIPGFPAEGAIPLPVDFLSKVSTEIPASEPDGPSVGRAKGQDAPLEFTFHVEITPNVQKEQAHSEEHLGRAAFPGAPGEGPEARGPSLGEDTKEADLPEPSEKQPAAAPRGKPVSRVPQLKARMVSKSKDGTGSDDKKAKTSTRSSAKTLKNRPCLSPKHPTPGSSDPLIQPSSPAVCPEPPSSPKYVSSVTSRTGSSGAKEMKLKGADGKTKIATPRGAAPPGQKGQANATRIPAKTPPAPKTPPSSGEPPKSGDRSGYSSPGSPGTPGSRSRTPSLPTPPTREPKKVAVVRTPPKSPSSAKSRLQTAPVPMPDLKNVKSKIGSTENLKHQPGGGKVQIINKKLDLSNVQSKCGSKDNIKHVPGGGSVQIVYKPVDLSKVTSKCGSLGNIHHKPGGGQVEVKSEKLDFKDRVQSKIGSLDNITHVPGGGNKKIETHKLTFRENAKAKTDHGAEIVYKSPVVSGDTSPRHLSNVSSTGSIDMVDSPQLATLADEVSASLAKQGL

Take “tau (human 2N4R) (from UniProt P10636-8) Sf9 tau”: the “other: dwell time” value in test [1] (setting [5]) is “weaker; reference ~ 4.3”. Also, the “other: Hill coefficient” value in test [2] (setting [5]) is on record as “stronger; reference 1.24”. Also, the “other: t1/2 of co-pelleting” value is “stronger; reference ~ 14” in test [3] (reference: E. coli tau (non-phosphorylated), sites T181,S198,S202,S210,T231,S235,S237,S352,S396,S404,S422) and “stronger; reference ~ 12” in test [3] (reference: HEK tau, sites S210,S422).

With “tau (human 2N4R) (from UniProt P10636-8) Sf9 SNAP-tau”, the “other: dwell time” value in test [4] was “weaker; reference ~ 6.06”.

“tau (human 2N4R) (from UniProt P10636-8) HEK tau”: the “other: dwell time” value in test [1] (setting [6]) is recorded as “weaker; reference ~ 4.3”. In test [2] (setting [6]), the “other: Hill coefficient” value is reported as “same; reference 1.24”. Also, the “other: t1/2 of co-pelleting” value in test [3] (reference: E. coli tau (non-phosphorylated), sites T181,S202,S210,T231,S235,S237,S241,S258,S262,T319,T373,T377,T403,S404) is listed as “same; reference ~ 14”.
